Laboratory results as given in patent publication EP4644418A1 (Hebei Senlang Biotechnology Co. Ltd., dated 2025).

T1: BCMA-His protein (extracellular region of human BCMA, His-tagged) (human, UniProt Q02223 1-54)
T1 construct: extracellular domain; Made in house and purified on a Ni column; also called human BCMA antigen; recombinant BCMA-His protein; not shown: His tag
T1 sequence (looked up): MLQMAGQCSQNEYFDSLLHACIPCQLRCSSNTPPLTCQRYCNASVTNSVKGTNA

B1: dNMC003-B (dual VHH CAR, VHH01-(G4S)5-VHH02, on K562 or CAR-T cells) (other)
chain: QVQLQESGGGSVQPGGSLRLSCKASGFTFSPSAMSWARQAPGKEIEWVSNIYPDGRTYYADSMKGRFTISRDNAENTVYLQMNSLKPEDTAVYYCLIGVGIVAGQVVSPYWGQGTQVTVSSGGGGSGGGGSGGGGSGGGGSGGGGSQVQLQESGGGLVQPGGSLRLSCAASGFTFSNYAMSWFRQGPGKERELVAGIDRTGGSTRTADSVQGRFTISRDNAKNKVYLQMNSLKPEDTAVYYCKALRTPGWGTSPDVVGYWGQGTQVTVSSTTPAPRPPTPAPTIASQPLSLRPEACRPAAGGAVHTRGLDFACDIYIWAPLAGTCGVLLLSLVITLYCKRGRKKLLYIFKQPFMRPVQTTQEEDGCSCRFPEEEEGGCELRVKFSRSADAPAYKQGQNQLYNELNLGRREEYDVLDKRRGRDPEMGGKPRRKNPQEGLYNELQKDKMAEAYSEIGMKGERRRGKGHDGLYQGLSTATKDTYDALHMQALPPR
notes: T2A-tEGFR follows in the construct and is split off at T2A; also called K562-dNMC003-B; dNMC003-B CAR-T
B2: NMC003-01 (single VHH CAR with VHH01, on CAR-T cells) (other)
chain: QVQLQESGGGSVQPGGSLRLSCKASGFTFSPSAMSWARQAPGKEIEWVSNIYPDGRTYYADSMKGRFTISRDNAENTVYLQMNSLKPEDTAVYYCLIGVGIVAGQVVSPYWGQGTQVTVSSTTPAPRPPTPAPTIASQPLSLRPEACRPAAGGAVHTRGLDFACDIYIWAPLAGTCGVLLLSLVITLYCKRGRKKLLYIFKQPFMRPVQTTQEEDGCSCRFPEEEEGGCELRVKFSRSADAPAYKQGQNQLYNELNLGRREEYDVLDKRRGRDPEMGGKPRRKNPQEGLYNELQKDKMAEAYSEIGMKGERRRGKGHDGLYQGLSTATKDTYDALHMQALPPR
notes: also called NMC003-01 CAR-T
B3: Nb003-02-Fc (Fc fusion)
chain: QVQLQESGGGLVQPGGSLRLSCAASGFTFSNYAMSWFRQGPGKERELVAGIDRTGGSTRTADSVQGRFTISRDNAKNKVYLQMNSLKPEDTAVYYCKALRTPGWGTSPDVVGYWGQGTQVTVSS
modifications: biotinylated for the flow cytometry assay only (sites not given)
notes: also called VHH02; not shown: N-terminal SUMO tag from plasmid pET-28a-Sumo-Nb-Fc; human IgG1 Fc tag at the C-terminus
B4: Nb003-02 (VHH02), monoclonal phage clone (VHH)
VHH: B3 chain
B5: dNMC003-A (dual VHH CAR, VHH02-(G4S)5-VHH02, on K562 or CAR-T cells) (other)
chain: QVQLQESGGGLVQPGGSLRLSCAASGFTFSNYAMSWFRQGPGKERELVAGIDRTGGSTRTADSVQGRFTISRDNAKNKVYLQMNSLKPEDTAVYYCKALRTPGWGTSPDVVGYWGQGTQVTVSSGGGGSGGGGSGGGGSGGGGSGGGGSQVQLQESGGGLVQPGGSLRLSCAASGFTFSNYAMSWFRQGPGKERELVAGIDRTGGSTRTADSVQGRFTISRDNAKNKVYLQMNSLKPEDTAVYYCKALRTPGWGTSPDVVGYWGQGTQVTVSSTTPAPRPPTPAPTIASQPLSLRPEACRPAAGGAVHTRGLDFACDIYIWAPLAGTCGVLLLSLVITLYCKRGRKKLLYIFKQPFMRPVQTTQEEDGCSCRFPEEEEGGCELRVKFSRSADAPAYKQGQNQLYNELNLGRREEYDVLDKRRGRDPEMGGKPRRKNPQEGLYNELQKDKMAEAYSEIGMKGERRRGKGHDGLYQGLSTATKDTYDALHMQALPPR
notes: T2A-tEGFR follows in the construct and is split off at T2A; also called K562-dNMC003-A; dNMC003-A CAR-T
B6: dNb003-B-Fc (Fc fusion)
chain: QVQLQESGGGSVQPGGSLRLSCKASGFTFSPSAMSWARQAPGKEIEWVSNIYPDGRTYYADSMKGRFTISRDNAENTVYLQMNSLKPEDTAVYYCLIGVGIVAGQVVSPYWGQGTQVTVSSGGGGSGGGGSGGGGSGGGGSGGGGSQVQLQESGGGLVQPGGSLRLSCAASGFTFSNYAMSWFRQGPGKERELVAGIDRTGGSTRTADSVQGRFTISRDNAKNKVYLQMNSLKPEDTAVYYCKALRTPGWGTSPDVVGYWGQGTQVTVSS
modifications: biotinylated for the flow cytometry assay only (sites not given)
notes: not shown: N-terminal SUMO tag from plasmid pET-28a-Sumo-Nb-Fc; human IgG1 Fc tag at the C-terminus
B7: Nb003-01 (VHH01), monoclonal phage clone (VHH)
VHH: QVQLQESGGGSVQPGGSLRLSCKASGFTFSPSAMSWARQAPGKEIEWVSNIYPDGRTYYADSMKGRFTISRDNAENTVYLQMNSLKPEDTAVYYCLIGVGIVAGQVVSPYWGQGTQVTVSS
B8: Nb003-01-Fc (Fc fusion)
chain: B7 VHH
modifications: biotinylated for the flow cytometry assay only (sites not given)
notes: also called VHH01; not shown: N-terminal SUMO tag from plasmid pET-28a-Sumo-Nb-Fc; human IgG1 Fc tag at the C-terminus

How the values were obtained:
[1] = target: T1, BCMA-His protein (extracellular region …); assay: flow cytometry (MFI) of transduced K562 cells stained with BCMA-His and an anti-His tag antibody
[2] = target: T1, BCMA-His protein (extracellular region …); assay: flow cytometry of CAR-T cells stained with BCMA-His and an anti-His tag antibody
[3] = target: T1, BCMA-His protein (extracellular region …); assay: ELISA, BCMA-His coated, anti-human IgG1 Fc-HRP detection
[4] = target: T1, BCMA-His protein (extracellular region …); assay: SPR (Biacore 8K), BCMA-His captured on NTA chip, nanobody-Fc as analyte, 1:1 binding fit
[5] = target: T1, BCMA-His protein (extracellular region …); assay: monoclonal phage ELISA on coated BCMA protein, HA-HRP detection

| Binder | EC50 [3] | Kd [4] | koff [4] | kon [4] | other results |
| --- | --- | --- | --- | --- | --- |
| B1 | – | – | – | – | binding result [1]: binds |
| B2 | – | – | – | – | binding result [2]: binds |
| B3 | 0.652 nM | 1.79 nM | 0.00212 s⁻¹ | 1.19e+06 M⁻¹ s⁻¹ | – |
| B4 | – | – | – | – | binding result [5]: binds |
| B5 | – | – | – | – | binding result [1]: binds |
| B6 | 0.346 nM | 1.94 nM | 0.00245 s⁻¹ | 1.27e+06 M⁻¹ s⁻¹ | – |
| B7 | – | – | – | – | binding result [5]: binds |
| B8 | 2.05 nM | 62 nM | 0.000857 s⁻¹ | 13800 M⁻¹ s⁻¹ | – |
